The values below come from article PMC11215335.

In this assay the target is single-chain Fv antibody fragment 18B7. The assay can be described thus: not stated; soluble scFv produced in the periplasm of E. coli (Fig. S2A).

Broadly, the stoichiometry N is a count of units in the complex or per binding partner.

Sequence of single-chain Fv antibody fragment 18B7 (scFv) (VH): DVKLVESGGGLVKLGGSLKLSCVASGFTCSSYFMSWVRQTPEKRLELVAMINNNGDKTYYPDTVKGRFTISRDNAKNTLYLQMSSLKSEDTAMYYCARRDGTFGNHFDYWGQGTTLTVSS
Sequence of single-chain Fv antibody fragment 18B7 (scFv) (VL): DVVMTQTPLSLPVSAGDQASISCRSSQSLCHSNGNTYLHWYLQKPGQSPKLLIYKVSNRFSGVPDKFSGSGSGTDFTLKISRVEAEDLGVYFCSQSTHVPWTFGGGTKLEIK

The substance “single-chain Fv antibody fragment 18B7 (scFv)” displayed a stoichiometry N of 2.
